The experiment addresses T1, CD6 (human (endogenous in CD4+ T cells), UniProt P30203 18-668).
T1 sequence (looked up): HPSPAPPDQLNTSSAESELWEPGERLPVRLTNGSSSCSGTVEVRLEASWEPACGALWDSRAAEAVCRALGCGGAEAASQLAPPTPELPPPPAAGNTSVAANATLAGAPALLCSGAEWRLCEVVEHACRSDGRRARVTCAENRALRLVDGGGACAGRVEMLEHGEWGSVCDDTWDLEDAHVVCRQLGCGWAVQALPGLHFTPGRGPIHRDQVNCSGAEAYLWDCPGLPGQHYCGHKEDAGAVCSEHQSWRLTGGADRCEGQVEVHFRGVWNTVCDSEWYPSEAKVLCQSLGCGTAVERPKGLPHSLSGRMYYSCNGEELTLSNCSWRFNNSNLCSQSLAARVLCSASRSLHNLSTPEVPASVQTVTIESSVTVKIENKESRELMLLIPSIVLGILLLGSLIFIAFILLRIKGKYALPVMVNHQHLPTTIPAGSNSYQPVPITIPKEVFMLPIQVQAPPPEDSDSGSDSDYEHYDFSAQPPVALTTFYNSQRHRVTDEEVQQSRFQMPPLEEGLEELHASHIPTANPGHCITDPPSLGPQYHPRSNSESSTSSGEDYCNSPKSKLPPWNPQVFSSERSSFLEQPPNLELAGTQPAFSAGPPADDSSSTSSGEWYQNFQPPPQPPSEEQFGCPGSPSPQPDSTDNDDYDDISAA
Description: cell-based or functional assay.

Here are results for 1 molecule from PMC11254670, “Soluble CD72, is a T-cell activator probably via binding to CD6 in homeostasis and autoimmunity” (Frontiers in Immunology, 2024).

B1: soluble CD72 (extracellular part of human CD72, amino acids 117-359, V5 and 8xHis tagged) (domain or fragment, UniProt P21854 117-359, looked up)
chain: RYLQVSQQLQQTNRVLEVTNSSLRQQLRLKITQLGQSAEDLQGSRRELAQSQEALQVEQRAHQAAEGQLQACQADRQKTKETLQSEEQQRRALEQKLSNMENRLKPFFTCGSADTCCPSGWIMHQKSCFYISLTSKNWQESQKQCETLSSKLATFSEIYPQSHSYYFLNSLLPNGGSGNSYWTGLSSNKDWKLTDDTQRTRTYAQSSKCNKVHKTWSWWTLESESCRSSLPYICEMTAFRFPD
In the case of B1, the “phosphorylation of SLP-76 (Ser376), phospho/total ratio by western blot, activated CD4+ T cells stimulated with 2 ug/ml sCD72 against control” value is roughly 2 fold.
